Source: US20220340678A1

Tests used:
[1] = target: human uPAR expressed on HEK293 cells (human), Q03405; assay: flow cytometry, HEK293 cells expressing human uPAR, 100 nM uPA present
[2] = target: biotinylated human uPAR (human), Q03405; assay: BLI (Octet) on biotinylated human uPAR; row 'None': no first antibody
[3] = target: biotinylated human uPAR (human), Q03405; assay: BLI (Octet) competition on biotinylated human uPAR; competitor (first antibody): M1
[4] = target: biotinylated human uPAR (human), Q03405; assay: BLI (Octet) competition on biotinylated human uPAR; competitor (first antibody): ATN-368 (ATN-658)
[5] = target: biotinylated human uPAR (human), Q03405; assay: BLI (Octet) competition on biotinylated human uPAR; competitor (first antibody): M5

- EC50 [1]: 3.99 nM
- response in competition assay [2]: 0.33
- response in competition assay [3]: -0.0144
- response in competition assay [4]: -0.0274
- response in competition assay [5]: 0.387
B1: ATN-658 (antibody)
chain 1: not shown
chain 2: VQLQESGPELVKTGASVKISCKASGYSFTSYYMHWVKQSHGKSLEWIGEINPYNGGASYNQKIKGRATFTVDTSSRTAYMQFNSLTSEDSAVYYCARSIYGHSVLDYWGQGTTVTVS
modifications: not checked
